From FireProtDB (doi:10.1021/bi051266r)
“And” between values parts separate entries of the source, which are not always exact repeats. Identical values can stand only once.

Conditions: Saccharolobus solfataricus (strain ATCC 35092 / DSM 1617 / JCM 11322 / P2), Thermal, DSC, Glycine 10 mM, transition: 3, reversible: yes, whole UniProt chain shown

B1: DNA/RNA-binding protein Alba 2 wild type, Q97ZF4 (protein)
chain: MTEKLNEIVVRKTKNVEDHVLDVIVLFNQGIDEVILKGTGREISKAVDVYNSLKDRLGDGVQLVNVQTGSEVRDRRRISYILLRLKRVY
unfolding enthalpy (calorimetric) (pH 3.2): 20.3 kcal/mol and 42.8 kcal/mol
unfolding enthalpy (van 't Hoff) (pH 3.2): 39.1 kcal/mol and 85.5 kcal/mol
Tm (pH 4.2): 116 °C
unfolding enthalpy (calorimetric) (pH 4.2): 47.8 kcal/mol
unfolding enthalpy (van 't Hoff) (pH 4.2): 93.5 kcal/mol
unfolding enthalpy (calorimetric) (pH 4.8): 37.8 kcal/mol and 47.3 kcal/mol
unfolding enthalpy (van 't Hoff) (pH 4.8): 75.5 kcal/mol and 92.7 kcal/mol
unfolding enthalpy (calorimetric) (pH 5.6): 44.8 kcal/mol and 56.9 kcal/mol
unfolding enthalpy (van 't Hoff) (pH 5.6): 95.5 kcal/mol and 105 kcal/mol
unfolding enthalpy (calorimetric) (pH 7.1): 27 kcal/mol and 44.9 kcal/mol
unfolding enthalpy (van 't Hoff) (pH 7.1): 172 kcal/mol and 84.7 kcal/mol
